Data: the nanobody polyreactivity screen of Harvey et al. (2022)

Experiment: yeast display, Sf9 membrane polyspecificity reagent, FACS + sequencing; frameworks hold sequencing errors
How it was run: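 Sorting gates, low and high (top ~1%), were placed on anti-HA fluorescence to track expression and on streptavidin fluorescence to track reagent binding. A clone's polyreactivity label is taken from the gate it came out of. The reagent was 10% biotinylated, detergent-solubilized Sf9 membrane, applied for 1 hour at 4 °C to galactose-induced yeast display cells.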
For “QVQLVESGGGLVQAGGSLRLSCAASGSILTVYAMGWYRQAPGKERELVARIRSGDRTYYADSVKGRFTISRDNAKNSVYLQMNSLKPEDTAVYYFAAGSQLRYYHTNWDSFNYWGQGTQVTVSS”, the “polyreactivity (PSR sort gate)” value was “low polyreactivity”.
In the case of “QVQLVESGGGLVQAGGSLRLSCAASGSILTWYPMGWYRQAPRKERELVAAITRGGSTYADSVKGRFTISRDNAKNTVYLQMNILKPEDTAVYYCKAVYGVYVFNYWGQGTQVSVSS”, the “polyreactivity (PSR sort gate)” value is reported as “low polyreactivity”.
With “QVQLVESGGGLVQAGGSLRLSCAASGSILVDNAMASYRQAPGKERELVARITGSGGSTYYADSVKGRFTISRDNAKNSVYLQMHILKPEDTAVYYCAARRVNAGWTYGLRGNYWGQGTQVTVSS” the “polyreactivity (PSR sort gate)” value was “low polyreactivity”.
With “QVQLVESGGGLVQAGGSLRLSCAASGSILVHYSMGWYRQAPGKERELVAAISRGGSTNYADSVKGRFTISRDNAKNTVYLQMNSLKPEDTAVYYCAARRPWGEYYWGQGTQVTVSS” the “polyreactivity (PSR sort gate)” value was “low polyreactivity”.
With “QVQLVESGGGLVQAGGSLRLSCAASGSILVSYAMARYSQAPGKERELVAAISGNSDSTYYADSVKGRFTISRDNAKNTVYLQMNSLKPEDTAVYYCAKEGGNGYDYWGQGTQVTVSS” the “polyreactivity (PSR sort gate)” value was “low polyreactivity”.
With “QVQLVESGGGLVQAGGSLRLSCAASGSILVSYAMGWYRQAPGKERELVAAITSGGRTKYADSVKGRFTISRDNAKNTVYLQMNSLKPEDTAVYYCAADDPLSYQFDYWGQGTQVTVSS” the “polyreactivity (PSR sort gate)” value was “high polyreactivity”.
With “QVQLVESGGGLVQAGGSLRLSCAASGSILYAYAMGWYRQAPGKERELLAAISSSGGGTYADSVKGRFTISRDNAKNTVYLQMNSLKPEDTAVYYCNADARGGIYFRGVKFDYWGQGTQVTVSS” the “polyreactivity (PSR sort gate)” value was “high polyreactivity”.
With “QVQLVESGGGLVQAGGSLRLSCAASGSILYINAMGWYRQAPGKERELVAAITYSGGSTYYADSVKGRFTISRDNAKNTVYLQMNSLKPEDTAVYYCAADAVVAGRYDGHDYWGQGTQVTVSS” the “polyreactivity (PSR sort gate)” value was “low polyreactivity”.
For “QVQLVESGGGLVQAGGSLRLSCAASGSILYIYAMGWYRQAPGKERELVASINSGGSTYYADSVKGRFTISRDNAKNTVYLHMYSLKPEDTGVYYCAKQGVDYWGQGTQVTVSS”, the “polyreactivity (PSR sort gate)” value was “low polyreactivity”.
With “QVQLVESGGGLVQAGGSLRLSCAASGSILYRYTMGWDRQAPGKERELVAAISFSGGRTYYADSVKGRFTISRDNAKNTVYLQMNSLKPEDTAVYYCNAGTSGKYGYWGQGTQVTVSS” the “polyreactivity (PSR sort gate)” value was “high polyreactivity”.
With “QVQLVESGGGLVQAGGSLRLSCAASGSILYSNMGWYRQAPGKERELVAAITYSGGRTYYADSVKGRFTISRDNAKNTVYLQMNSLKPEDTAVYYCAARLATYGASTYYYWGQGTQVTVSS” the “polyreactivity (PSR sort gate)” value was “high polyreactivity”.
For “QVQLVESGGGLVQAGGSLRLSCAASGSILYTYAMGWYRQAPGKERELVASISSNAGSTYYADSVKGRFTISRDNAKNTVYLQMNSLKPEDTAVYYCNKVYGGGTYDYWGQGTQVTVSS”, the “polyreactivity (PSR sort gate)” value was “low polyreactivity”.
For “QVQLVESGGGLVQAGGSLRLSCAASGSILYTYAMGWYRQSPGKERELVAAISRGGGSTYYADSVKGRFTISRDNAKNSVYLQMNSLKPEDSAVYYCAARKLTRGSGRDDEYWGQGTQVTVSS”, the “polyreactivity (PSR sort gate)” value was “high polyreactivity”.
For “QVQLVESGGGLVQAGGSLRLSCAASGSIQGYVMGWYRQAPGKERELVAAITNGGSTYYADSVKGRFTISRDNAKNTVYLQMISLKPEDTAVYYCAKRKFRWPYQGSYSYIPFGYWGQGTQVTVSS”, the “polyreactivity (PSR sort gate)” value was “high polyreactivity”.
With “QVQLVESGGGLVQAGGSLRLSCAASGSIRSYAMGWYRQAPGKERELVAAITRSGGSTYYADSVKGRFTLSRDNAKNSVYLQMNSLKPEDTAVYYCAARYTYSYPYYRYNYWGQGTQVTVSS” the “polyreactivity (PSR sort gate)” value was “high polyreactivity”.
With “QVQLVESGGGLVQAGGSLRLSCAASGSISADDVMGWYRQAPGKERELVAAISVSAGTTYYADSVKGRFTISRDNAKNSVYLQMNSLKPEDSAVYYCAATDSYYWLYYYGYSPGNDYWGQGTQVNVSS” the “polyreactivity (PSR sort gate)” value was “low polyreactivity”.
With “QVQLVESGGGLVQAGGSLRLSCAASGSISFINAIGWYRQATGKERELVAAISGSGGSTYYADSVKGRFTISRDNAKNTVFLQMNSLKPEDTAVYYCAVPLPSRIYGYWGQGTQVTVSS” the “polyreactivity (PSR sort gate)” value was “low polyreactivity”.
In the case of “QVQLVESGGGLVQAGGSLRLSCAASGSISFINAMGWYRQAPGKERELVAAITPGASTNYADSVKGRFTISRDNAKNTVYLQLNSLKPEDTAVYFCAAGWVSFEDWVLGSYYEYDYWGLGTQVTVSS”, the “polyreactivity (PSR sort gate)” value is reported as “low polyreactivity”.
For “QVQLVESGGGLVQAGGSLRLSCAASGSISGVYAMGWYRQAPGKERELVAAISRSGGSTYYADSVKGRFTISRDNAKNTVYLQMNSLKPEDTAVYYCAAEYTYYSYGGNYDYWGQGTQVTVSS”, the “polyreactivity (PSR sort gate)” value was “low polyreactivity”.
In the case of “QVQLVESGGGLVQAGGSLRLSCAASGSISKGYAMGWYRQAPGKERELVARISGDGGSTYYADSVKGRFTISRDNAKNTVYLQMNSLKPEDTAVYYCNTRQQFTLTRGVFLHNYWGQGTQVTVSS”, the “polyreactivity (PSR sort gate)” value is reported as “high polyreactivity”.
With “QVQLVESGGGLVQAGGSLRLSCAASGSISKSYAMGWYRQAPGKERELVAVITSGGNTYYADSVKGRFTISRDNAKNTVYLQMNSLKPEDTAVYYCAADYHWYTEDDYWGQGTQVTVSS” the “polyreactivity (PSR sort gate)” value was “high polyreactivity”.
In the case of “QVQLVESGGGLVQAGGSLRLSCAASGSISNFYAMGWYRQAPGKEREFVAAISTRDGTKRFADSVKGRFTISRDNAKNTVYLQMNSLKPEDTAVYYCAAKGGGVWLYARIYSDYYWGQGTQVTVSS”, the “polyreactivity (PSR sort gate)” value is reported as “low polyreactivity”.
With “QVQLVESGGGLVQAGGSLRLSCAASGSISRLYAMRWYRQAPGKERELVARITSSGGRTYYADSVKGRFTISRDNAKNTVYLQMHSLKPEDTAVYYCAARGYVSVWRPYHWFVAGDYWGQGTQVTVSS” the “polyreactivity (PSR sort gate)” value was “high polyreactivity”.
With “QVQLVESGGGLVQAGGSLRLSCAASGSISRQYALGWYRQAPGTERELVAAITVRGGSTYYADSVKGRFTISRDNAKNTVYLQMNSLKPEDTAVYYCAKYTRYSASYDYWGQGTQVTVSS” the “polyreactivity (PSR sort gate)” value was “high polyreactivity”.
In the case of “QVQLVESGGGLVQAGGSLRLSCAASGSISSAYAMGWYRQAPGKERELVAVITSGGSTNYADSVKGRFTISRDNAKNTVYLQMNSLKPEDTAVYYCNADTVAPLPYDYWGQGTQVTVSS”, the “polyreactivity (PSR sort gate)” value is reported as “low polyreactivity”.
With “QVQLVESGGGLVQAGGSLRLSCAASGSISSYYAMGWYRQAPGQERELVAAITLNGGNTYYADSVKGRFTISRDNAKKTVYLQMNSLKPEDTAVYYCARRYRYGTKYYYWGQGTQVTVSS” the “polyreactivity (PSR sort gate)” value was “high polyreactivity”.
For “QVQLVESGGGLVQAGGSLRLSCAASGSISVHYAMGWYRQAPGKERELVAAISRRGGSTYYADSVKGRFTISRDNAMNTVYLQMNSLKPEDTAVYYCNASYYSVIQQTWYDYWGQVTQVTVSS”, the “polyreactivity (PSR sort gate)” value was “high polyreactivity”.
With “QVQLVESGGGLVQAGGSLRLSCAASGSISVPYGMGWYRQAPGKERELVAAITGGSTNYADSVKGRFTISRDNAKNTVYLQMNSLKPEDTAVYYCAADVYWYYGAPELWYRYDYWGQGTQVTVSS” the “polyreactivity (PSR sort gate)” value was “low polyreactivity”.
With “QVQLVESGGGLVQAGGSLRLSCAASGSISVWYVMGWYRQAPGKEREFVAAIDYGGGSTYADSVKGRFTISRDNAKNTVYLQMNSLKPEDTAVYYCNADNWVYLYDYWGQGTQVTVSS” the “polyreactivity (PSR sort gate)” value was “low polyreactivity”.
With “QVQLVESGGGLVQAGGSLRLSCAASGSISWYYAMGWYRQAPGKERELVAAISDSGGDTYYADSVKGRFTISRDNAKNTVYLQMNSLKPEDTAVYYCATDTAYWLWVYALLEYWGQGTQVTVSS” the “polyreactivity (PSR sort gate)” value was “low polyreactivity”.
With “QVQLVESGGGLVQAGGSLRLSCAASGSISYFNAMGWYRQAPGKERELVAAIDVSGDSTYYADSVKGRCTISRDNAKISLYLQMNSLKPEDTAVYYCAKDPTSWYRTFGHSYYWYDYWGQGTQVTVSS” the “polyreactivity (PSR sort gate)” value was “low polyreactivity”.
